What was measured:
[1] = target: soluble rhesus ILT2-ECD (rhesus macaque); assay: SPR (Biacore), antibody captured on Protein A chip, soluble rhesus ILT2-ECD injected (1.6-200 nM), 25 C
[2] = target: human ILT2 chimeric reporter receptor (ILT2 extracellular domain fused to PILRbeta transmembrane/intracellular domain) (human), Q8NHL6
[3] = target: T1, human ILT4 chimeric reporter receptor (ILT4 extracellular domain fused to PILRbeta transmembrane/intracellular domain) (human), Q8N423
[4] = target: T1, human ILT4 chimeric reporter receptor …; remark: listed apart in the source
[5] = target: ILT2 and/or ILT4 on human CD14+ monocytes; assay: flow cytometry, fluorescently labelled antibody on CD14+ monocytes of human PBMC, donor Human 1, geometric MFI
[6] = target: ILT2 and/or ILT4 on human CD14+ monocytes; assay: flow cytometry, fluorescently labelled antibody on CD14+ monocytes of human PBMC, donor Human 2, geometric MFI
[7] = target: cyno ILT2 chimeric reporter receptor (cyno ILT2 extracellular domain fused to PILRbeta transmembrane/intracellular domain) (cynomolgus monkey)
[8] = target: soluble rhesus ILT2-ECD (rhesus macaque); assay: SPR (Biacore), antibody captured on Protein A chip, soluble rhesus ILT2-ECD injected, 25 C, low resolution parameters; low resolution parameters
[9] = target: soluble rhesus ILT2-ECD (rhesus macaque); assay: SPR (Biacore), antibody captured on Protein A chip, soluble rhesus ILT2-ECD injected, 25 C, low resolution parameters
[10] = target: ILT2 and/or ILT4 on human CD14+ monocytes; assay: flow cytometry, fluorescently-labelled antibody on CD14+ monocytes of human PBMC
[11] = target: cynomolgus monkey ILT2 (protein injected in Biacore) (cynomolgus monkey); assay: SPR (Biacore), antibody captured on Protein A chip, ILT protein injected, 25 C
Sequence of cynomolgus monkey ILT2 (protein injected in Biacore) (cynomolgus monkey) (chain, as listed by the source limits assumed, form in doubt): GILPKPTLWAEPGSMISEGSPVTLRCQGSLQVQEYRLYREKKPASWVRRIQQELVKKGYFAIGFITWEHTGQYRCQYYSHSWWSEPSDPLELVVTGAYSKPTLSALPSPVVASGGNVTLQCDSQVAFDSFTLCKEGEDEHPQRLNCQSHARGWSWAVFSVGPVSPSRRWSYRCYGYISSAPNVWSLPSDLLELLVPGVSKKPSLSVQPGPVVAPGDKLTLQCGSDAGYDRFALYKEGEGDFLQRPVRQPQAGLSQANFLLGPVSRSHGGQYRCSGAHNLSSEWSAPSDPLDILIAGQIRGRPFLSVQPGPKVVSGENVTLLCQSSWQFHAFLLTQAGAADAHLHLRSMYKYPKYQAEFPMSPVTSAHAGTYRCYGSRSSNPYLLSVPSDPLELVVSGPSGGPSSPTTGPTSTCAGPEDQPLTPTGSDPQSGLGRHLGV

T1 sequence (Q8N423 other isoform, or with tags, fused parts or gaps mutant limits assumed): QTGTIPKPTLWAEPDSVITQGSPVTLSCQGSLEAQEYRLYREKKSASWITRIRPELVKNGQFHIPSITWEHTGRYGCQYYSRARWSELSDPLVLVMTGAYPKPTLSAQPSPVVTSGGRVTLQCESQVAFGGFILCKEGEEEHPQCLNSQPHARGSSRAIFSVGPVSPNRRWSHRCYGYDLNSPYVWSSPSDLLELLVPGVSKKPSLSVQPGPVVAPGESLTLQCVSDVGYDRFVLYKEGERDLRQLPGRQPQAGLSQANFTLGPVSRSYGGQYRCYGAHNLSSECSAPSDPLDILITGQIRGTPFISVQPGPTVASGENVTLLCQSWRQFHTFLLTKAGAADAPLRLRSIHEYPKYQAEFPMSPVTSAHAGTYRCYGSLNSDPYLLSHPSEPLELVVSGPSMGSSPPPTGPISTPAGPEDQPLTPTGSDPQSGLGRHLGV
Sequence of soluble rhesus ILT2-ECD (rhesus macaque) (chain, as listed by the source limits assumed, form in doubt): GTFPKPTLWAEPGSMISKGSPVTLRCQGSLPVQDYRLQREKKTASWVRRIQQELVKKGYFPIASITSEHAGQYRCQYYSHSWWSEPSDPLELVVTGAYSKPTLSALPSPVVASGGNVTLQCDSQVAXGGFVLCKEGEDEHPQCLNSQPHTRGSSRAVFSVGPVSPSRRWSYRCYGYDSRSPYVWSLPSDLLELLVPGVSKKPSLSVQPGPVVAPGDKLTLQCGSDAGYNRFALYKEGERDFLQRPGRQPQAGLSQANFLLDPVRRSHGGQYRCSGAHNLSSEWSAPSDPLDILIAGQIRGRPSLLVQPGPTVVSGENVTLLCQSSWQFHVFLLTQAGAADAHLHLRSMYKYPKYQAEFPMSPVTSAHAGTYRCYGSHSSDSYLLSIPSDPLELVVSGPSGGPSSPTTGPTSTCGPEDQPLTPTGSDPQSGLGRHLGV
Sequence of human ILT2 chimeric reporter receptor (ILT2 extracellular domain fused to PILRbeta transmembrane/intracellular domain) (human), Q8NHL6 (Q8NHL6 24-461 limits assumed, change not shown): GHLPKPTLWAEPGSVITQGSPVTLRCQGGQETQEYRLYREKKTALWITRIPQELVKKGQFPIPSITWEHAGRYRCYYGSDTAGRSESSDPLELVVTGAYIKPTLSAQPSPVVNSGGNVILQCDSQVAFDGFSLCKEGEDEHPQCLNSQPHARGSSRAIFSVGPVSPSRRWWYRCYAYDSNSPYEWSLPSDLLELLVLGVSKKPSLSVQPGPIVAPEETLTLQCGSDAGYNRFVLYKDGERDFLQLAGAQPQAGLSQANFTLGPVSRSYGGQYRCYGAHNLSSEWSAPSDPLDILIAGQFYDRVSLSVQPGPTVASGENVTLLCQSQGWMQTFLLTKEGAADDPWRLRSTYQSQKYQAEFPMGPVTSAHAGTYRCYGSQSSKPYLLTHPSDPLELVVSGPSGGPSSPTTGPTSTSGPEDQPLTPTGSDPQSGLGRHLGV

Row | Kd [1] [nM] | koff [1] [s⁻¹] | kon [1] [M⁻¹ s⁻¹] | Kd [9] [nM] | koff [9] [s⁻¹] | Binder | also measured
1 | 2.3 | 0.0014 | 590000 |  |  | anti-ILT4 antibody 47C8 (antibody, V domains shown) VH: EVQLQQSGPDLVKPGASVKISCKASGYSFTGYYMHWVKQSHGKSLEWIGRVYPNNGDTSYNQKFKVKAILTVDKSSSTAYMELRSLTSEDSAVYYCARGATVVESLFAYWGQGTLVTVSA VL: DIVLTQSPASLAVSLGQRATISCRASESVDNYGNNFLHWYQQKPGQPPKLLIYRTSNLESGIPARFSGSGSRTDFTLTINPVEADDVATYYCQQSNEDPYTFGGGTKLEIK | 
2 |  |  |  |  |  | anti-ILT2 antibody 27F9 (antibody, V domains shown) VH: QVQLKESGPGLVAPSQSLSITCTVSGFSLTNYGVSWVRQPPGKGLEWLGIIWGDGSTNYHSALISRLSISKDNSKSQVFLKLNSLQADDTATYYCAKPNWDTYAMDFWGQGTSVTVSS VL: DIQMTQTTSSLSASLGDRVTISCRASQDISNFLNWYQQKPDGTVKLLIYCTSKLHSGVPSRFSGSGSETDYSLTISNLEQEDIATYFCQQGNTLPPTFGGGTKLEII | IC50 (read off the curve), %GFP+ human ILT2 reporter cells co-cultured with Raji cells [2]: 0.04 nM
3 | 2.3 | 0.0026 | 1.1e+06 |  |  | anti-ILT4 antibody 48A5 (antibody, V domains shown) VH: QIQLVQSGPELKKPGETVKISCKASGYTFTNYGMNWVKQAPGKGLKWMGWINTYIGEPIYADDFKGRFAFSLETSASTAYLQINNLKNEDMATYFCARRSDYDGYAMDYWGQGTSVTVSS VL: DIVMSQSPSSLAVSVGERVTMSCKSSQSLLYSGNQKNYLAWYQQKPGQSPKLLIYWASTRESGVPDRFTGSGSGTDFTLTISSVKAEDLAVYYCQQHDSYPTFGGGSRLEIK | IC50 (read off the curve), %GFP+ human ILT4 reporter cells co-cultured with 721.221-HLA-G cells [3]: 0.02 nM; IC50 (read off the curve), %GFP+ human ILT4 reporter cells co-cultured with Raji cells [4]: 0.02 nM
4 | 1.2 | 6e-05 | 50000 |  |  | anti-ILT2/ILT4 antibody 73D1 (antibody, V domains shown) VH: AVQLQQSGPELVKPGASVKISCKASGYTFTDYYINWVKQSHGKSLQWIGNVNPNDGGTTYNQKFKGKATLTVDKSSSTAYMELRSLTSEDSAVYYCARREIYFYGTIYYYAMDYWGQGTSVTVSS VL: DIVLTQSPASLAVSLGQRATISCRASESVDYYGNSFMYWYQQKPGRPPNLLIYFASNLESGVPARFSGSGSRTDFTLTIDPVEADDAATYYCQQNNEDPWTFGGGTKLEIK | EC50 (read off the curve) [5]: 4 nM; EC50 (read off the curve) [6]: 5 nM; IC50 (read off the curve), %GFP+ cyno ILT2 reporter cells co-cultured with Raji cells [7]: 0.04 nM; IC50 (read off the curve), %GFP+ human ILT2 reporter cells co-cultured with Raji cells [2]: 0.2 nM; IC50 (read off the curve), %GFP+ human ILT4 reporter cells co-cultured with Raji cells [4]: 0.07 nM
5 | 0.2 | 2.1e-05 | 100000 |  |  | anti-ILT2/ILT4 antibody 51A1 (antibody, V domains shown) VH: EVQLVESGGGLVQPKGSLKLSCAASGFTFNTYAMHWVRQAPGKGLEWVARIRSKSSNYATYYADSVKDRFTISRDDSQSMLYLQMNNLKTEDTAMYYCVRDGIYYYGTMYYYAMDYWGQGTSVTVSS VL: NIVLTQSPASLAVSLGQRATISCRASESVDYYGNSFMYWYQQKPGQPPKLLIYFASNLESGVPARFSGSGSRTDFTLTIDPVEAADAASYYCQQNNEDPWTFGGGTKLEIK | 
6 |  |  |  | < 0.1 | 1e-05 | anti-ILT2/ILT4 antibody 64A12 (antibody, V domains shown) VH: EVQLVESGGGLVQPKGSLKLSCAASGFTFNTYAMHWVRQAPGKGLEWVARIRSKSSNYATYYADSVKDRFTISRDDSQSMLYLQMNNLKTEDTAMYYCVRDGIYYYDTMYYYAMDYWGQGTSVTVSS VL: NIVLTQSPASLAVSLGQRATISCRASESVDYYGNSFIYWYQQKPGQPPKLLIYFASNLESGVPARFSGSGSRTDFTLTIDPVEAADAASYYCQQNNEDPWTFGGGTKLEIK | kon [8]: 20000 M⁻¹ s⁻¹
7 |  |  |  | < 0.1 | 1e-05 | anti-ILT2/ILT4 antibody 73C4 (antibody, V domains shown) VH: AVQLQQSGPELVKPGASVKISCKASGYTFTDYYMNWVKQSHGKSLEWIGNVNPNNGGTSYNQKFKGKATLTVDKSSSTAYMELRSLTSEDSAVYYCARREIYFYGTIYYYAMDYWGQGTSVTVSS VL: DIVLTQSPASLAVSLGQRATISCRASESVDYYGNSFMYWYQQKPGRPPNLLIYFASNLESGVPARFSGSGSRTDFTLTIDPVEADDAATYYCQQNNEDPWTFGGGTKLEIK | kon [9]: 31000 M⁻¹ s⁻¹
8 |  |  |  |  |  | humanized anti-ILT2/ILT4 antibody Hz73D1.v1 (antibody, human IgG1, kappa, N297G, V domains shown) VH: QVQLVQSGAEVKKPGASVKVSCKASGYTFTDYYINWVRQAPGQGLEWMGNVNPNDGGTTYNQKFKGRVTMTTDTSTSTAYMELRSLRSDDTAVYYCARREIYFYGTIYYYAMDYWGQGTLVTVSS VL: DIQLTQSPSFLSASVGDRVTITCRASESVDYYGNSFMYWYQQKPGKAPKLLIYFASNLESGVPSRFSGSGSGTEFTLTISSLQPEDFATYYCQQNNEDPWTFGGGTKVEIKR | EC50 [10]: 8.8 nM; Kd [11]: 19.1 nM; koff [11]: 0.06 s⁻¹; kon [11]: 3.4e+06 M⁻¹ s⁻¹
9 |  |  |  | < 0.1 | 1e-05 | anti-ILT2/ILT4 antibody 47H6 (antibody, V domains shown) VH: EVQLQQSGPELVKPGASVKISCKASGYTFTDYYMNWVKQSHGKSLEWIGDFNPNNGGTTYNQKFEGKATLTVDKSSNTAYMDLRSLTSEDSAVYYCARGRFYYGSLYSFDYWGQGTTLTVSS VL: DIQMTQSPASLSASVGETVTITCRASGNIHNYLAWYQQKQGKSPHLLVYNAKTLADGVPSRFSGSGSGTQYSLKINNLQPEDFGSYYCQHFWTSITFGAGTKLDLK | kon [9]: 47000 M⁻¹ s⁻¹

Reference: US20240025997A1
